In the DeepSol protein solubility set:

Assay: soluble on expression in E. coli; label from the status in PepcDB or PDB records

Sequence | soluble on expression in E. coli
MGSDKIHHHHHHMERIPVIKTSDLSIGYILKGGQKKRVHDALDLNLYPGEVTCLLGLNGAGKSTLLRTLCGFQPPLGGEIELMGKPLNSYSQGNFSRLVGVVLTEKTNAGGITVYELVSLGRHPYTGFFGQLRQEDRRIIEESLAAAGIAHKAYNYVSELSDGERQKAMIAKALAQQCPIILLDEPTAFLDVTSRIETMVLLHTLAVEQQKAILLSTHDLDLAIQLGDCLWLQEKKRPMACGTPEDLIMGGAFETFFSKEGIVFDPNTGKLNTVAPAKLIGVAGDFMTSYWVGNALIRNGFKPSSVSEDYISVYCNAPDSLRIQFPAEEGTRIVGSVAEMISIIIHKS | not soluble
MGSDKIHHHHHHMPTVHDLDTPSILIDAARAEANIARAQAHADKNGLKLRPHIKTHKLPYWAKKQVAAGAVGITCQKIGEAEVMTDAGLSDIFLPYNILGRAKLQRLKTLHGRVTLSVTSDSMETLEGLAATFTDAGHPLQVLVECDTGMGRCGVQTADQAVALARLIDKAGGLTFGGLMTYPAAGRAAEAEAWLANAKQALAASGLACERISSGGTPDMWRSGEDSVVTEYRPGTYIYLDRYQVAKGVGTLDDCALTVLATVVSHPTATRAILDSGSKALSSDTLGLKDFGELLGAPDARVTGLSEEHGTVTLSGDAKLRIGERVRVVPDHCCVVTNLFNEVNLIDGETVLETLPVAARGKMG | not soluble
MGSDKIHHHHHHAQQLNVQGDLVSSYVWRGMYQTGASIQPTLGFSVGNFSLTAWGSTDFDGTSASAGAAAKEIDLTAAYTLGRSGLTVSVADLWWAGQGARKYFNFKSHETAHHFEAGVAYTVQSETFPLSVAWYTMFAGQDKNAEGGQNYSSYVEFNYPFRVRMVDLNVTCGMVPYAAPQYNCDGFAVTNVALKGTTQIRFTDKFALPVFAQAVWNPRMEDAHLVFGITLKP | not soluble
MGSDKIHHHHHHLKQKILHIIDSFSTGGAEVLLAGVIPELVDFEHVIVYLTPTKTPILSSDPTIKIVCLNFRSITDATRIIKDLNTIIEQEKPGIIHTHLYFSSLFIRFARTNKINIIQTYHNEYYRIRYPQFSARIKKIGLKLLDRFTMKNAYTVIHVSKAQQLVNDHDVRIKSSAVLYNYVEDQFYQTRKTSSFKGTGKLKIICVGNLKTEKNHILLLHALRQLMHLPIHVTICGEGNDYIMLQKYINRYDLPVTLMGSQKNIHELLGQHDLFVSCSIIEGFGISIAEAMASEIPLIISDISTFKEVTQNKAVFFESRNVASLAEKIEQFYLSPQSAAASVLACKEIAEQYKKSFYLDRLNTLYKK | not soluble
HMSNPLGELVKALEKLSFKPSDVRIYSLLLERGGMRVSEIARELDLSARFVRDRLKVLLKRGFVRREIVEKGWVGYIYSAEKPEKVLKEFKSSILGEIERIEKMFTDGS | soluble
MATIKLKFRPSTVQGKAGTLCYQLCHRQENRQITTDMRIFPEWWNETKRELVAVPGNERVLTAYRKRAEKEMRDIREIIRELDCSGETYTLSEILNRYRSLPSEPGFLYYMKKEMETLWENGQYGTSRNYRRALNSFSAFLDGDDIPFSSLDSALACRYESWLWQQKVARNSSSFYMRILRAVYNKAVKQGLAVQTFPFREVYTGVARTSKRAVDEETIRKLQRLDLSGSPALALSRDMFVFSYCARGMAFVDMAYLKKEDVGGGRITYYRHKTGQYLTLRIEPCMVTILERYGRTCPESPYLFPILTDEQPELAYRQYRTGLNYHNRKLKRLGKLLGEPLPLSSYTPRHSWATAARNHDVPIAVISAGMGHSSERTTLIYLDSLDNAIIDNANEKILKGLNDTISM | not soluble
MLHFYQAVAQLMEHIRGAKAHDVRFTQPLADKPPFALIDWLDAQPIFPKFYWQSRDTREEVVALGQVYTFTDPAPAYAILGDEQRVWGGRSFDGHTAKNPRCMSSFFFLPQIELIRRDEQWLLAVNINNEPQRTLTALQKLLVEVPTLRSMTAHVTRVEHTPTAANWHDLVEKVLAGITEKQFKKVVLARKTTLTLDAPLSAAQLLKASHAQNHHSFHFLLALDSRHSFMGSTPERLYLRHGQNLETEALAGTIGRGANATQDMELAHWLTHDSKNLNENQLVVEDIIESLAPHAEQIHTQREAQLVRLRKVQHLKKRIDAQLKSGVNGVQLLGVLQPTAAVAGLPRQAALAFIAENEPFARGWYAGSMGYFSHAQAEFCVAIRSALVVDKQVQLYAGAGIVPGSIAEHEWQELDKKLSTLLSLITDRLPLGVAS | not soluble
MKFLHTADLHLGKIVSGVSMLAEQEYILAQITKIAEEEQVDALILAGDLYDRAVPPADAVKVLNDILVKWNVELGIPIFAISGNHDSAERLAFGSQWYESSKLYMKGKCTSQFEAISFMDAEVWLVPYHEPAIIREAFADNSIRSFEDAMQAVTKQIRSKWDTSKAQILVGHAFVSGGIPSDSERQLAIGNVDRVSTDCFDGFTYTALGHLHHPHAIRHPSIFYSGSPLKYSFSEANDHKSVRIVELEGKELVSVTERFLTPKHDMRIISGTLAELTENLVENPDDFFQVNLMDEGALIDPMGKLRQFYPNILHLERKKQTLKETQDNFEEIMKKDDLELFGQFFEHVNGTELTETQKQKLADVFEQARKEDAE | not soluble
MGHHHHHHMSEFYKLAPVDKKGQPFPFDQLKGKVVLIVNVASKCGFTPQYKELEALYKRYKDEGFTIIGFPCNQFGHQEPGSDEEIAQFCQLNYGVTFPIMKKIDVNGGNEDPVYKFLKSQKSGMLGLRGIKWNFEKFLVDKKGKVYERYSSLTKPSSLSETIEELLKEVE | soluble
MGSDKIHHHHHHMSTNISLFAQVIRLLPRPLIKKLSTEFQVDKHSKHFTSWQHLVSMIFSQFSSCISLREISNGLRSATGNLNHLGICTAPSKSNLSYQNEHRTSDFFRACYYALLDYFGQQGMGQGRKFRFKQPVKLLDSTTITLCLALYDWAKYTHTKGAVKLHTLLDFKTLLPEYVHISDGKGHDGKMANSIPIPAGSIVVADRGYADTALLNSWDSTQVSFVVRHPRSLKYEVIQELELPEHGHQQILVDQRVRLTGVQTQGKYTKPLRHIALYNEQHGDVVELLTNIDTLAASSIALLYRSRWLIEIFFRNLKQRLSMKAFLGTTRNAVEVQIWTALITMLLMVYLKSIAKYRWCLSNLVSSLRINTFTKMDLMQWLNEPFTPPPEPENQLF | not soluble
MAYNLKEVAKKPERLTGGHRMCAGCGAPIVVRQVLKALKPEDHAVISAATGCLEVSTFIYPYTAWKDSFIHSAFENTGATISGAEAAYKVLKKKGKIEGETKFIAFGGDGGTYDIGLQALSGAMERGHDMVYVCYDNGAYMNTGIQRSSATPKYADTTTSPVGKKIPGKMQPRKDLTEVLVNHRIPYVAQTAPFGNMKDLYEKAEKAIYTPGPAFLNVLAPCPRGWRYNTPDLMELSKLAVETCFWPLYEVIDGKYIINYKPKEKVPVKEFLKLQGRFKHLFKAGNEYMLEEIQKEVDLRWERLLKLAGEA | not soluble
GSRIAKRTAINKTKKADVKAIADAWQINGEKELELLQQIAQKPGALRILNHSLRLAAMTAHGKGERVNEDYLRQAFRELDLDVDISTLLRN | soluble
MNQAFKALADPTRRKILDLLKEGDLTAGEIAEHFNMTKPSISHHLNALKNAELIQDEKKGQFVMYSLNTTVFQDLLTWVFTFTNKGEEGK | not soluble
MTIAQQERPVAASPYRFEAEMTSGLERVAAHHHDLTLTSVFQPIFSLSHMRAVGYEALLRAHDALDRPVSPLDVFGEAARHGEAAQVDRLAQALHLENFARFGAEREWLFLNVHPGVLTDPFQAAALFANLKRLEIPPRRIVLEVLEQRADDIERLADAVREFREQGFLIALDDFGAGHSNIERIWQLNPDIVKLDRIMLSHAQHRAGLTAILHGLVTLLHEAGKLVLIEGIETEHEAQIALACDADFVQGHFFGRPAPGLPDGAAASACIGELTERYRQQAEASERRDAQRLAPYQRAFERAAERLAAGEPLDEVCWNFLALDHAARCFLLDERGRQAGRNVVRRADRARHETRFLPLADAQGANWLRRPYFRSAIAAPGRVQATRPYLSINEALPCVTLSIAVRVHDALCVLCGDIDWIDDEASMSA | soluble
MGSDKIHHHHHHVQYLDKLVSGLAVELHVPEGDYEGNYKTHVDEIGKTRLSVYAPHYQGMIIPLQEGTLVEVTFWDDVASYSFMSSVLQRVATPIPMFVLKMPDSIRRVQRRNYVRVSASFPITYQVVEREGLGDLLKGNMLDLSGGGMRFQAKVKLDKGSILYANLELPCGIIGTPGRVCRVEPIEDTKYFSVSVDFYQISERDRDRIIRCVFDIQRDLRKKGLI | not soluble
MGISDNDVQKQLRHMMAFIEQEANEKAEEIDAKAEEEFNIEKGRLVQQQRQKIMEFFEKKEKQVELQRKIQASNSLNAGRLRCLKAREDHIGAVLDEARSNLSRISGDAARYPAILKGLVMQGLLQLLEKEVVLRCREKDLRLVEQLLPECLDGLQKEWGSTTKVVLDKQNFLPSESAGGVELSARAGKIKVSSTLESRLELIANQIVPQVRTALFGPNPNRSFFD | not soluble
SPVRTECPPPAGASTTSAASLIPPPPINTQQPGVATSLLYSGSKFRGHQKSKGNSYDVEVVLQHVDTGNSYLCGYLKIKGLTEEYPTLTTFFEGEIISKKHPFLTRKWDADEDVDRKHWGKFLAFYQYAKSFNSDDFDYEELKNGDYVFMRWKEQFLVPDHTIKDISGASFAGFYYICFQKSAASIEGYYYHRSSEWYQSLNLTHVPEHSAPIYEFR | soluble
MSKVNQQDIDKLIELVGGRGNIATVSHCITRLRFVLNDPAIARPKEIEQLRMVKGCFTNAGQFQVVIGTEVGDYYKALLATTGQTSADKEQVKQA | not soluble
MSEDIGVTRFREYLRVNTEQPKPDYEACRDFLFKYADELGIERRSVETAPGTYFVIMTIPGSKPDLPSIMLYSHTDVVPTFREYWTHDPYSAFKDEDGNIFARGAQDMKCVGVQYMEALRNWFAKGVKQWTRTIHIVWGPDEEIGHINGMKGFAVTEEFKKLNIDFALDEGIATEDDVYKIFYAERIPWWVKVTLPGHPGHGSKFIEKTAIEKLHKLIASVDEFRNEQKSLLAEHPEWTVGDVTTSNITIINGGVQVNVVPEKFEAYIDIRVTPLQDLDAVLARVDQWAKEAGEGVTYEFMQFSNFKLISPNTREDPFWAAIDDALQKEGCKYKKEIFIGATDSRFVRAQGIRAIGFSPIINTPSLLHDHNEFLNEKTFLRGVEIYETLINKLANVN | not soluble
GSHMSQGSGEGEGVQLTAAQELMIQQLVAAQLQCNKRSFSDQPKVTPWPLGADPQSRDARQQRFAHFTELAIISVQEIVDFAKQVPGFLQLGREDQIALLKASTIEIMLLETARRYNHETECITFLKDFTYSKDDFHRAGLQVEFINPIFEFSRAMRRLGLDDAEYALLIAINIFSADRPNVQEPGRVEALQQPYVEALLSYTRIKRPQDQLRFPRMLMKLVSLRTLSSVHSEQVFALRLQDKKLPPLLSEIWDVHE | soluble
MDYDVIANQPVVIDNGSGVIKAGFAGEQQPKVRFANFVGRPKYHRVMAGGLDGDIFIGPKAESNRGLFSIEYPMEHGIVNNWSDMEKIWEYIFGQDQLKIFPEEHPVLLTDAPLNPLKNRERSAEIFFETFNVPALYIQMQAVLSLYATGRTTGVVLDSGDGVTHAVPIVKGFAMKHAIQRMDLAGRDVTEYLRVLLRREGYEFHRSNEFEIVREMKENACYLALDPTKVENNSVKSSYALPDTTKIEISNSLFRAPEVLFKPDLIGTEWPGMAHVVNQSIMKCDVDLRQTLYSNIVLSGGTTLFKGFGDRLLGEMRKIAPADGKIRISASQERNSLTWIGGSIVASLDTFRKMWLGKKEYEDMGASAMHKRFF | not soluble
